Experimental findings from publication PMC9298306, “Controlling Enzymatic Activity by Modulating the Oligomerization State via Chemical Rescue and Optical Control” (Chembiochem, 2021) are described below.

Series [1] deals with T1, RGGGPS (AncGGGPS2_N4_IF_n12).
T1 construct: His-tagged, from E. coli; hexamer
Briefly: coupled pyrophosphate/phosphate detection at […] nm (PPase, PNPase, xanthine oxidase), G1P-dependent. The format is biochemical. The settings on record: 11 μM GGPP, 10 mM MgCl2, pH 8.0, 40 °C, 0.2 % Tween80.

The next series addresses T2, mtGGGPS (Methanothermobacter thermautotrophicus, UniProt O26652, K143C/C191A, form not given).
T2 construct: gene MTH_552; His-tagged, expressed in E. coli BL21-Gold(DE3); hexamer (trimer of dimers); C194A/K146C variant is a dimer unless rescued
Described as above. Particulars: 11 μM GGPP, 10 mM MgCl2, pH 8.0, 40 °C, 0.2 % Tween80; without bromoethylamine (−Am), dimer. The format is biochemical.

Series [2] deals with geranylgeranylglyceryl phosphate synthase from Methanothermobacter thermautotrophicus, wild type (Methanothermobacter thermautotrophicus) (UniProt O26652). Briefly: SEC-MALS; analytical SEC (Superdex 200 Increase 10/300 GL) in combination with static light scattering (right-angle light scattering and refractive index detectors); 40 μM subunit concentration; 50 mM potassium phosphate, pH 7.5, 300 mM KCl; room temperature (approx. 23 °C). (In general: SEC sorts molecules by how far they enter the pores of the column.)

For series [3], the target named is mtGGGPS_(C194A) (Methanothermobacter thermautotrophicus) (UniProt O26652). The description is as above.
The target of series [4] is mtGGGPS_(C194A)_K146C^+Am (Methanothermobacter thermautotrophicus) (UniProt O26652).
Series [5] shares this target. Put plainly: SEC-MALS; analytical SEC (Superdex 200 Increase 10/300 GL) in combination with static light scattering (right-angle light scattering and refractive index detectors); 40 μM subunit concentration; 50 mM potassium phosphate, pH 7.5, 300 mM KCl; room temperature (approx. 23 °C).
Substrate in the series “purified protein”: O=P(O)(O)OC[C@@H](O)CO
Briefly: purified protein. The format is biochemical, Methanothermobacter thermautotrophicus. The settings on record: 11 μM GGPP, 10 mM MgCl2, pH 8.0, 40 °C, 0.2 % Tween80.

T2 sequence (O26652 whole entry K143C/C191A, form open): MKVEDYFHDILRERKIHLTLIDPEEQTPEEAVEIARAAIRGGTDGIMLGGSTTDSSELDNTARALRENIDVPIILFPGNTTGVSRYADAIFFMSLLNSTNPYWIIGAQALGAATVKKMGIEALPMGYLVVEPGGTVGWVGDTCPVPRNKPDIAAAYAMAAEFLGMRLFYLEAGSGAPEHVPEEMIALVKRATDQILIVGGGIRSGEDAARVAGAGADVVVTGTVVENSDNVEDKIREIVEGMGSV

For `O=P(O)(O)OC[C@@H](O)CO` [G1P, glycerol 1‐phosphate], the figures for the Km (in series [1]; on mtGGGPS) were 14.2 ± 2.2 µM and 63.4 ± 5.8 µM, respectively.
For “geranylgeranylglyceryl phosphate synthase from Methanothermobacter thermautotrophicus, wild type (from UniProt O26652 1-245) (enzyme)”, the stoichiometry N (in general, a count of units in the complex or per binding partner) in series [2] turned out to be 6.
As for “mtGGGPS_(C194A) (from UniProt O26652 1-245) (enzyme)”, the stoichiometry N in series [3] stood at 6.
On to “mtGGGPS_(C194A)_K146C^+Am (from UniProt O26652 1-245) (enzyme)”, for which the kcat/KM, photometric assay of the GGGPS reaction at 40 °C in series [4] stood at 192000 M⁻¹ s⁻¹. Besides, in series [5], the percent in the hexameric state was 100% and the stoichiometry N was 6.
In the case of “mtGGGPS_(C194A)_K146C^−Am (from UniProt O26652 1-245) (enzyme)”, the kcat/KM, photometric assay of the GGGPS reaction at 40 °C in series [4] was found to be 550 M⁻¹ s⁻¹. The stoichiometry N in series [5] was determined as 2.

B1: mtGGGPS (Methanothermobacter thermautotrophicus str. Delta H) (protein)
chain: MKVEDYFHDILRERKIHLTLIDPEEQTPEEAVEIARAAIRGGTDGIMLGGSTTDSSELDNTARALRENIDVPIILFPGNTTGVSRYADAIFFMSLLNSTNPYWIIGAQALGAATVKKMGIEALPMGYLVVEPGGTVGWVGDTKPVPRNKPDIAAAYAMAAEFLGMRLFYLEAGSGAPEHVPEEMIALVKRCTDQILIVGGGIRSGEDAARVAGAGADVVVTGTVVENSDNVEDKIREIVEGMGSV
notes: His-tagged, expressed in E. coli BL21-Gold(DE3); hexamer (trimer of dimers); C194A/K146C variant is a dimer unless rescued
Regarding B1, in the series “purified protein”, the Km (usually the substrate concentration at which the rate is half of its maximum) was determined as 2.0 ± 0.3 µM; the turnover number (kcat) (in general, the number of substrate molecules converted per active site and unit of time at saturation) was found to be 0.23 ± 0.005 s⁻¹; the kcat/Km (in general, the turnover number divided by the Michaelis constant) came to 115000 ± 17000 M⁻¹ s⁻¹.

B2: mtGGGPS (Methanothermobacter thermautotrophicus str. Delta H; C191A) (protein)
chain: MKVEDYFHDILRERKIHLTLIDPEEQTPEEAVEIARAAIRGGTDGIMLGGSTTDSSELDNTARALRENIDVPIILFPGNTTGVSRYADAIFFMSLLNSTNPYWIIGAQALGAATVKKMGIEALPMGYLVVEPGGTVGWVGDTKPVPRNKPDIAAAYAMAAEFLGMRLFYLEAGSGAPEHVPEEMIALVKRATDQILIVGGGIRSGEDAARVAGAGADVVVTGTVVENSDNVEDKIREIVEGMGSV
notes: as for B1
Take B2: in “purified protein”, the Km is 3.3 ± 0.6 µM, the turnover number (kcat) amounted to 0.29 ± 0.01 s⁻¹ and the kcat/Km is 88000 ± 18000 M⁻¹ s⁻¹.
